T1: human IL-2 receptor (IL-2Rα/IL-2Rβ/γc) (human, UniProt P01589 22-272; P14784 27-551; P31785 23-369)
T1 sequence 1: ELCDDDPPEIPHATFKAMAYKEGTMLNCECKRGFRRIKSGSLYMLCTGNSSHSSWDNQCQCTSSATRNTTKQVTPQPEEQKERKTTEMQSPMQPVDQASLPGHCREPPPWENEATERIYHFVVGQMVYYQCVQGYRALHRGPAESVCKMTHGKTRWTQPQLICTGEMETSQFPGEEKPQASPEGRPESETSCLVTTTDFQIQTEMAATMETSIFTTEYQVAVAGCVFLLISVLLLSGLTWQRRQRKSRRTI
T1 sequence 2: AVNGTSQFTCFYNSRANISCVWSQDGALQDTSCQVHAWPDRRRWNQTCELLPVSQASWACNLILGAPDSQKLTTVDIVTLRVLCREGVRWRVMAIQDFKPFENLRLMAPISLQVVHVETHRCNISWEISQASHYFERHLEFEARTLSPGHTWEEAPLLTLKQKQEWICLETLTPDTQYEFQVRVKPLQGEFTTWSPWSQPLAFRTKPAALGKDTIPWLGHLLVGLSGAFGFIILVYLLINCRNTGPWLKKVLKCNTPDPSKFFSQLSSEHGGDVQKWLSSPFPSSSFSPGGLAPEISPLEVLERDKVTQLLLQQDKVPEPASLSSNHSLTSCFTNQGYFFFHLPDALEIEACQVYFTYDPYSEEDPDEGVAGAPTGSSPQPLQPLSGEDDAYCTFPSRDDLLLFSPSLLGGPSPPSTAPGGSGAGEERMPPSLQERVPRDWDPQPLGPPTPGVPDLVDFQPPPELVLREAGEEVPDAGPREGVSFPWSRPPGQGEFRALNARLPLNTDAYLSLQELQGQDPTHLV
T1 sequence 3: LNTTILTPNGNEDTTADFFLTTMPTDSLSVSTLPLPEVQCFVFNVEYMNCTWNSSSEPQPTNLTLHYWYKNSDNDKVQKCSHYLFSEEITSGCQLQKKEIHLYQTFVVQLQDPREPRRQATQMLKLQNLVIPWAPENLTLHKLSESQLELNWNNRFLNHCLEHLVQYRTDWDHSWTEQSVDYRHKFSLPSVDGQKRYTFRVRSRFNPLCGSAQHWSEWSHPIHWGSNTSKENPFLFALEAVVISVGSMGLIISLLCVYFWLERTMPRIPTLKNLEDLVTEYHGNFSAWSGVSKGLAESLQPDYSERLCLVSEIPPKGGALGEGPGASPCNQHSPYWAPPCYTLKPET


Molecular target: T1, human IL-2 receptor (IL-2Rα/IL-2Rβ/γc)
Assay: cell-based or functional assay

Binder	EC50 (nM) pSTAT5, NK, human PBMCs [nM]	EC50 (nM) pSTAT5, Treg, human PBMCs [pM]	Fold Max signal (% pSTAT5+) Treg/NK [fold]	Max signal (% pSTAT5+), NK [% pSTAT5+]	Max signal (% pSTAT5+), Treg [% pSTAT5+]	fold EC50 NK/Treg [fold]
DC00042 (other) chain 1: QVQLVESGGGLVQPGGSLRLSCATSGFTFRNNFMSWVRQAPGKGLEWVSTISYGGESTTYAESVKGRFTISRDNAKNTLYLQMNNLKPEDTAVYYCAKATSYDSIRSGSRGQGTQVTVSSDKTHTCPPCPAPEAAGGPSVFLFPPKPKDTLMISRTPEVTCVVVDVSHEDPEVKFNWYVDGVEVHNAKTKPREEQYNSTYRVVSVLTVLHQDWLNGKEYKCKVSNKALGAPIEKTISKAKGQPREPQVYTLPPSRDELTKNQVSLTCLVKGFYPSDIAVEWESNGQPENNYKTTPPVLDSDGSFLLYSKLTVDKSRWQQGNVFSCSVMHEALHNHYTQKSLSLSPGK chain 2: QVQLVESGGGLVQAGGSLTLSCAAPGRTFGTDVVGWFRQAPGKEREFVASISRSGDGIYYDDSVKGRFTISRNNAWNTVNLQMNSLKVEDTAVYYCAAGDGWSTYDYWGQGTQVTVSSGGGGSGGGGSGGGGSEVQLVESGGGLVQTGGSLRLSCAASGGTFSRDAMAWFRQVPGKEREFVALISWSGATTNYADSVKGRFAISRDNGKNTVYLQMNRLKPADTAIYYCAADRRPMGSRSYFEPTEYDDWGQGTQVTVSSGGGGSGGGGSGGGGSDKTHTCPPCPAPEAAGGPSVFLFPPKPKDTLMISRTPEVTCVVVDVSHEDPEVKFNWYVDGVEVHNAKTKPREEQYNSTYRVVSVLTVLHQDWLNGKEYKCKVSNKALGAPIEKTISKAKGQPREPQVYTLPPSRDELTKNQVSLTCLVKGFYPSDIAVEWESNGQPENNYKTTPPVLDSDGSFFLYSRLTVDKSRWQQGNVFSCSVMHEALHNHYTQKSLSLSPGK	0.763	0.106	5	21	94	7210
DC00044 (other) chain 1: QVQLVESGGGLVQPGGSLRLSCATSGFTFRNNFMSWVRQAPGKGLEWVSTISYGGESTTYAESVKGRFTISRDNAKNTLYLQMNNLKPEDTAVYYCAKATSYDSIRSGSRGQGTQVTVSSDKTHTCPPCPAPEAAGGPSVFLFPPKPKDTLMISRTPEVTCVVVDVSHEDPEVKFNWYVDGVEVHNAKTKPREEQYNSTYRVVSVLTVLHQDWLNGKEYKCKVSNKALGAPIEKTISKAKGQPREPQVYTLPPSRDELTKNQVSLTCLVKGFYPSDIAVEWESNGQPENNYKTTPPVLDSDGSFLLYSKLTVDKSRWQQGNVFSCSVMHEALHNHYTQKSLSLSPGK chain 2: QVQLVESGGGLVQAGGSLTLSCAAPGRTFGTDVVGWFRQAPGKEREFVASISRSGDGIYYDDSVKGRFTISRNNAWNTVNLQMNSLKVEDTAVYYCAAGDGWSTYDYWGQGTQVTVSSGGGGSGGGGSGGGGSEVQLVESGGGLVQTGGSLRLSCAASGGTFSRDAMAWFRQVPGKEREFVALISWSGATTNYADSVKGRFAISRDNGKNTVYLQMNRLKPADTAIYYCAADRRPMGSRSYFEPTEYDDWGQGTQVTVSSGGGGSGGGGSGGGGSQVQLVESGGGLVQPGGSLRLSCATSGFTFRNNFMSWVRQAPGKGLEWVSTISYGGESTTYAESVKGRFTISRDNAKNTLYLQMNNLKPEDTAVYYCAKATSYDSIRSGSRGQGTQVTVSSDKTHTCPPCPAPEAAGGPSVFLFPPKPKDTLMISRTPEVTCVVVDVSHEDPEVKFNWYVDGVEVHNAKTKPREEQYNSTYRVVSVLTVLHQDWLNGKEYKCKVSNKALGAPIEKTISKAKGQPREPQVYTLPPSRDELTKNQVSLTCLVKGFYPSDIAVEWESNGQPENNYKTTPPVLDSDGSFFLYSRLTVDKSRWQQGNVFSCSVMHEALHNHYTQKSLSLSPGK	0.442	< 0.1	5	20	96	> 4420
DC00045 (other) chain 1: QVQLVESGGGLVQPGGSLRLSCATSGFTFRNNFMSWVRQAPGKGLEWVSTISYGGESTTYAESVKGRFTISRDNAKNTLYLQMNNLKPEDTAVYYCAKATSYDSIRSGSRGQGTQVTVSSDKTHTCPPCPAPEAAGGPSVFLFPPKPKDTLMISRTPEVTCVVVDVSHEDPEVKFNWYVDGVEVHNAKTKPREEQYNSTYRVVSVLTVLHQDWLNGKEYKCKVSNKALGAPIEKTISKAKGQPREPQVYTLPPSRDELTKNQVSLTCLVKGFYPSDIAVEWESNGQPENNYKTTPPVLDSDGSFLLYSKLTVDKSRWQQGNVFSCSVMHEALHNHYTQKSLSLSPGK chain 2: QVQLVESGGGLVQAGGSLTLSCAAPGRTFGTDVVGWFRQAPGKEREFVASISRSGDGIYYDDSVKGRFTISRNNAWNTVNLQMNSLKVEDTAVYYCAAGDGWSTYDYWGQGTQVTVSSGGGGSGGGGSGGGGSQVQLVESGGGLVQPGGSLRLSCATSGFTFRNNFMSWVRQAPGKGLEWVSTISYGGESTTYAESVKGRFTISRDNAKNTLYLQMNNLKPEDTAVYYCAKATSYDSIRSGSRGQGTQVTVSSGGGGSGGGGSGGGGSEVQLVESGGGLVQTGGSLRLSCAASGGTFSRDAMAWFRQVPGKEREFVALISWSGATTNYADSVKGRFAISRDNGKNTVYLQMNRLKPADTAIYYCAADRRPMGSRSYFEPTEYDDWGQGTQVTVSSGGGGSGGGGSGGGGSDKTHTCPPCPAPEAAGGPSVFLFPPKPKDTLMISRTPEVTCVVVDVSHEDPEVKFNWYVDGVEVHNAKTKPREEQYNSTYRVVSVLTVLHQDWLNGKEYKCKVSNKALGAPIEKTISKAKGQPREPQVYTLPPSRDELTKNQVSLTCLVKGFYPSDIAVEWESNGQPENNYKTTPPVLDSDGSFFLYSRLTVDKSRWQQGNVFSCSVMHEALHNHYTQKSLSLSPGK	0.0573	0.151	12	7	88	379
DC00043 (other) chain 1: QVQLVESGGGLVQPGGSLRLSCATSGFTFRNNFMSWVRQAPGKGLEWVSTISYGGESTTYAESVKGRFTISRDNAKNTLYLQMNNLKPEDTAVYYCAKATSYDSIRSGSRGQGTQVTVSSDKTHTCPPCPAPEAAGGPSVFLFPPKPKDTLMISRTPEVTCVVVDVSHEDPEVKFNWYVDGVEVHNAKTKPREEQYNSTYRVVSVLTVLHQDWLNGKEYKCKVSNKALGAPIEKTISKAKGQPREPQVYTLPPSRDELTKNQVSLTCLVKGFYPSDIAVEWESNGQPENNYKTTPPVLDSDGSFLLYSKLTVDKSRWQQGNVFSCSVMHEALHNHYTQKSLSLSPGK chain 2: QVQLVESGGGLVQPGGSLRLSCATSGFTFRNNFMSWVRQAPGKGLEWVSTISYGGESTTYAESVKGRFTISRDNAKNTLYLQMNNLKPEDTAVYYCAKATSYDSIRSGSRGQGTQVTVSSGGGGSGGGGSGGGGSEVQLVESGGGLVQTGGSLRLSCAASGGTFSRDAMAWFRQVPGKEREFVALISWSGATTNYADSVKGRFAISRDNGKNTVYLQMNRLKPADTAIYYCAADRRPMGSRSYFEPTEYDDWGQGTQVTVSSGGGGSGGGGSGGGGSQVQLVESGGGLVQAGGSLTLSCAAPGRTFGTDVVGWFRQAPGKEREFVASISRSGDGIYYDDSVKGRFTISRNNAWNTVNLQMNSLKVEDTAVYYCAAGDGWSTYDYWGQGTQVTVSSGGGGSGGGGSGGGGSDKTHTCPPCPAPEAAGGPSVFLFPPKPKDTLMISRTPEVTCVVVDVSHEDPEVKFNWYVDGVEVHNAKTKPREEQYNSTYRVVSVLTVLHQDWLNGKEYKCKVSNKALGAPIEKTISKAKGQPREPQVYTLPPSRDELTKNQVSLTCLVKGFYPSDIAVEWESNGQPENNYKTTPPVLDSDGSFFLYSRLTVDKSRWQQGNVFSCSVMHEALHNHYTQKSLSLSPGK	0.0425	0.529	16	3	54	80

Reference: US20240409645A1 (DUALYX, published 2024)
